Patent US20240010749A1 (Merck KGaA, published 2024)

T1: human CEACAM5 expressed on cancer cell lines (MKN-45, NCI-H441, SNU-16, SK-CO-1, LS174T) (human, UniProt P06731 35-685)
T1 construct: Endogenous CEACAM5 of human cancer cell lines; the cell line is named under assay or readout; also called CEACAM5-positive cell lines; MKN45 cell line expressing human CEACAM5
T1 sequence: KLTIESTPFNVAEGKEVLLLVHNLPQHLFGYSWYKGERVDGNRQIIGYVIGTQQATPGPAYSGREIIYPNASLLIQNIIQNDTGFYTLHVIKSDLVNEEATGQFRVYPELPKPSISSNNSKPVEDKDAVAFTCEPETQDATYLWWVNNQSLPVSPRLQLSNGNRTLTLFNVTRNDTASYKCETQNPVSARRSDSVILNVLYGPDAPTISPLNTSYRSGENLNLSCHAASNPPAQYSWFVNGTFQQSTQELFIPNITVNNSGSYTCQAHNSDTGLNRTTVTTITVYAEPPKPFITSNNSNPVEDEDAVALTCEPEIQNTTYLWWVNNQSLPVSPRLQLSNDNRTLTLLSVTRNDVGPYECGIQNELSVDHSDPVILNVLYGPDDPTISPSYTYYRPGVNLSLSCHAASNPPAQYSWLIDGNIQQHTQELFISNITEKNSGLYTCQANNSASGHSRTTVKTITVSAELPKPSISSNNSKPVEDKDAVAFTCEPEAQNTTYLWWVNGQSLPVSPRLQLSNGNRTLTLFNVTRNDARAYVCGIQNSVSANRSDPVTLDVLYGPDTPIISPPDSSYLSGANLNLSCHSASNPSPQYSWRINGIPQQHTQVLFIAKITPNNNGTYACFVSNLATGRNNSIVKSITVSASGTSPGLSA


Tests used:
[1] = biological target: T1, human CEACAM5 expressed on cancer cell …; assay: cell binding on MKN45 cells, average of several experiments
[2] = biological target: T1, human CEACAM5 expressed on cancer cell …; assay: cell-based or functional assay
[3] = biological target: T1, human CEACAM5 expressed on cancer cell …; assay: cell-based or functional assay; remark: listed apart in the source

| Binder | EC50 [1] | IC50 [M], cell viability (CellTiter-Glo, 6 days), LS174T [2] | IC50 [M], cell viability (CellTiter-Glo, 6 days), MKN-45 [2] | IC50 [M], cell viability (CellTiter-Glo, 6 days), SK-CO-1 [2] | IC50 [M], cell viability (CellTiter-Glo, 6 days), SNU-16 [2] | fold higher potency than ADC SAR DM4 against SK-CO-1 cancer cells (cell viability) [3] |
| --- | --- | --- | --- | --- | --- | --- |
| hmn-14 (antibody, human IgG1, kappa, V domains shown, Known comparator antibody, human IgG; also called labetuzumab) VH: EVQLVESGGGVVQPGRSLRLSCSASGFDFTTYWMSWVRQAPGKGLEWIGEIHPDSSTINYAPSLKDRFTISRDNAKNTLFLQMDSLRPEDTGVYFCASLYFGFPWFAYWGQGTPVTVSS VL: DIQLTQSPSSLSASVGDRVTITCKASQDVGTSVAWYQQKPGKAPKLLIYWTSTRHTGVPSRFSGSGSGTDFTFTISSLQPEDIATYYCQQYSLYRSFGQGTKVEIKR | 16000 pM | – | – | – | – | – |
| ADC1 (mAb1-glucuronid-exatecan) (other, exatecan attached through the glucuronide linker of DL1 (maleimide) to cysteines of reduced interchain disulfides; DAR 7.9) heavy: EVQLQESGPGLVKPSQTLSLTCTVSDGSVSRGGYYLTWIRQHPGKGLEWIGYIYYSGSTYFNPSLRSRVTMSVDTSKNQFSLKLSSVTAADTAVYYCARGIAVAPFDYWGQGTLVTVSSASTKGPSVFPLAPSSKSTSGGTAALGCLVKDYFPEPVTVSWNSGALTSGVHTFPAVLQSSGLYSLSSVVTVPSSSLGTQTYICNVNHKPSNTKVDKRVEPKSCDKTHTCPPCPAPPVAGPSVFLFPPKPKDTLMISRTPEVTCVVVDVSHEDPEVKFNWYVDGVEVHNAKTKPREEQYNSTYRVVSVLTVLHQDWLNGKEYKCKVSNKALPSSIEKTISKAKGQPREPQVYTLPPSREEMTKNQVSLTCLVKGFYPSDIAVEWESNGQPENNYKTTPPVLDSDGSFFLYSKLTVDKSRWQQGNVFSCSVMHEALHNHYTQKSLSLSPG light: not shown | – | 3.8e-10 M | 6.2e-10 M | 8.5e-11 M | 3.2e-10 M | 2.9 fold |
| mAb1 (antibody, human IgG1, kappa, Labelled with pHrodo in the internalization assay; also called so8G4) heavy: EVQLQESGPGLVKPSQTLSLTCTVSDGSVSRGGYYLTWIRQHPGKGLEWIGYIYYSGSTYFNPSLRSRVTMSVDTSKNQFSLKLSSVTAADTAVYYCARGIAVAPFDYWGQGTLVTVSSASTKGPSVFPLAPSSKSTSGGTAALGCLVKDYFPEPVTVSWNSGALTSGVHTFPAVLQSSGLYSLSSVVTVPSSSLGTQTYICNVNHKPSNTKVDKRVEPKSCDKTHTCPPCPAPPVAGPSVFLFPPKPKDTLMISRTPEVTCVVVDVSHEDPEVKFNWYVDGVEVHNAKTKPREEQYNSTYRVVSVLTVLHQDWLNGKEYKCKVSNKALPSSIEKTISKAKGQPREPQVYTLPPSREEMTKNQVSLTCLVKGFYPSDIAVEWESNGQPENNYKTTPPVLDSDGSFFLYSKLTVDKSRWQQGNVFSCSVMHEALHNHYTQKSLSLSPG light: not shown | 10400 pM | – | – | – | – | – |
| ADC2 (mAb1-AAN-exatecan) (other, exatecan attached through the legumain-cleavable Ala-Ala-Asn linker of DL2 (maleimide) to cysteines of reduced interchain disulfides; DAR 7.6) heavy: EVQLQESGPGLVKPSQTLSLTCTVSDGSVSRGGYYLTWIRQHPGKGLEWIGYIYYSGSTYFNPSLRSRVTMSVDTSKNQFSLKLSSVTAADTAVYYCARGIAVAPFDYWGQGTLVTVSSASTKGPSVFPLAPSSKSTSGGTAALGCLVKDYFPEPVTVSWNSGALTSGVHTFPAVLQSSGLYSLSSVVTVPSSSLGTQTYICNVNHKPSNTKVDKRVEPKSCDKTHTCPPCPAPPVAGPSVFLFPPKPKDTLMISRTPEVTCVVVDVSHEDPEVKFNWYVDGVEVHNAKTKPREEQYNSTYRVVSVLTVLHQDWLNGKEYKCKVSNKALPSSIEKTISKAKGQPREPQVYTLPPSREEMTKNQVSLTCLVKGFYPSDIAVEWESNGQPENNYKTTPPVLDSDGSFFLYSKLTVDKSRWQQGNVFSCSVMHEALHNHYTQKSLSLSPG light: not shown | – | 2.8e-10 M | 4.7e-10 M | 6.9e-11 M | 2.8e-10 M | 2.7 fold |
